According to the supplement of paper PMC9112550, “Optimization of the antimicrobial peptide Bac7 by deep mutational scanning” (BMC Biology, 2022):

System: Escherichia coli TOP10
Experiment: shrunken log2 fold change of peptide-encoding DNA abundance (4.5 h post-induction vs induction); higher = less antimicrobial activity (less host growth inhibition)
Settings: time post-induction: 4.5 h; library: site-saturation at positions 5, 18, 19, 20
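Note: peptides expressed intracellularly from a pBAD plasmid library in pooled LB shake-flask culture, induced with 0.3% L-arabinose, DNA abundance read by NGS, three biological replicates, DESeq2 with apeglm shrinkage.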

Q: How did the “shrunken log2 fold change” value turn out when RRIRSRPPRLPRPRPRPENFPRP was run?
A: Its value is -0.0342.

Q: RRIRWRPPRLPRPRPRPEPVPRP was tested. Which “shrunken log2 fold change” value did it give?
A: The value was -0.0131.

Q: How did the “shrunken log2 fold change” value turn out when RRIRNRPPRLPRPRPRPHPLPRP was run?
A: The value was -0.122.

Q: Which “shrunken log2 fold change” value does the source give for RRIRPRPPRLPRPRPRPYMYPRP here?
A: The value was -0.634.

Q: With RRIRYRPPRLPRPRPRPTPAPRP as the sequence, how does the “shrunken log2 fold change” value read?
A: Its value is 0.238.

Q: With RRIRIRPPRLPRPRPRPSGCPRP as the sequence, how does the “shrunken log2 fold change” value read?
A: The value was -0.137.

Q: Which “shrunken log2 fold change” value does the source give for RRIRLRPPRLPRPRPRPVPWPRP here?
A: The value was 0.0255.

Q: For RRIRWRPPRLPRPRPRPMRFPRP, which “shrunken log2 fold change” value is on record?
A: The value was 0.00175.

Q: How did the “shrunken log2 fold change” value turn out when RRIRWRPPRLPRPRPRPFSSPRP was run?
A: The value was -0.374.

Q: With RRIRNRPPRLPRPRPRPHTMPRP as the sequence, how does the “shrunken log2 fold change” value read?
A: The value was -0.298.

Q: Which “shrunken log2 fold change” value does the source give for RRIRARPPRLPRPRPRPPNSPRP here?
A: Its value is 0.136.

Q: Which “shrunken log2 fold change” value does the source give for RRIRMRPPRLPRPRPRPNNAPRP here?
A: Its value is -0.0978.

Q: RRIRNRPPRLPRPRPRPSISPRP was tested. Which “shrunken log2 fold change” value did it give?
A: The value was -0.256.

Q: Which “shrunken log2 fold change” value does the source give for RRIRDRPPRLPRPRPRPVLHPRP here?
A: Its value is 0.0367.

Q: With RRIRIRPPRLPRPRPRPYSYPRP as the sequence, how does the “shrunken log2 fold change” value read?
A: The value was -0.0485.

Q: Which “shrunken log2 fold change” value does the source give for RRIRLRPPRLPRPRPRPGNKPRP here?
A: Its value is -0.46.

Q: How did the “shrunken log2 fold change” value turn out when RRIRFRPPRLPRPRPRPDTHPRP was run?
A: Its value is -0.618.

Q: How did the “shrunken log2 fold change” value turn out when RRIRTRPPRLPRPRPRPGWYPRP was run?
A: The value was -0.23.

Q: With RRIRARPPRLPRPRPRPRKKPRP as the sequence, how does the “shrunken log2 fold change” value read?
A: The value was 0.404.

Q: How did the “shrunken log2 fold change” value turn out when RRIRYRPPRLPRPRPRPYDQPRP was run?
A: The value was -0.124.

Q: With RRIRRRPPRLPRPRPRPWWCPRP as the sequence, how does the “shrunken log2 fold change” value read?
A: Its value is 4.82.

Q: With RRIRVRPPRLPRPRPRPCKRPRP as the sequence, how does the “shrunken log2 fold change” value read?
A: Its value is -0.196.

Q: How did the “shrunken log2 fold change” value turn out when RRIRWRPPRLPRPRPRPWWYPRP was run?
A: Its value is -0.203.

Q: For RRIRFRPPRLPRPRPRPGMGPRP, which “shrunken log2 fold change” value is on record?
A: The value was 0.102.

Q: How did the “shrunken log2 fold change” value turn out when RRIRLRPPRLPRPRPRPCLEPRP was run?
A: The value was -0.052.

Q: With RRIRNRPPRLPRPRPRPYFTPRP as the sequence, how does the “shrunken log2 fold change” value read?
A: The value was -0.47.

Q: How did the “shrunken log2 fold change” value turn out when RRIRHRPPRLPRPRPRPAHTPRP was run?
A: The value was -0.199.

Q: RRIRHRPPRLPRPRPRPSDRPRP was tested. Which “shrunken log2 fold change” value did it give?
A: The value was -0.125.

Q: Which “shrunken log2 fold change” value does the source give for RRIRMRPPRLPRPRPRPAPDPRP here?
A: The value was 1.15.

Q: For RRIRTRPPRLPRPRPRPKCTPRP, which “shrunken log2 fold change” value is on record?
A: The value was -0.0569.

Q: Which “shrunken log2 fold change” value does the source give for RRIRIRPPRLPRPRPRPCPMPRP here?
A: The value was -0.367.

Q: RRIRSRPPRLPRPRPRPMAYPRP was tested. Which “shrunken log2 fold change” value did it give?
A: The value was -0.0939.

Q: With RRIRSRPPRLPRPRPRPYRTPRP as the sequence, how does the “shrunken log2 fold change” value read?
A: The value was 0.00951.

Q: With RRIRPRPPRLPRPRPRPMPSPRP as the sequence, how does the “shrunken log2 fold change” value read?
A: The value was -0.0976.

Q: RRIRHRPPRLPRPRPRPRGDPRP was tested. Which “shrunken log2 fold change” value did it give?
A: Its value is 0.263.

Q: How did the “shrunken log2 fold change” value turn out when RRIRKRPPRLPRPRPRPRFYPRP was run?
A: Its value is 0.33.

Q: For RRIRGRPPRLPRPRPRPNCGPRP, which “shrunken log2 fold change” value is on record?
A: The value was 0.0147.

Q: Which “shrunken log2 fold change” value does the source give for RRIRPRPPRLPRPRPRPVNLPRP here?
A: The value was -0.136.

Q: How did the “shrunken log2 fold change” value turn out when RRIRKRPPRLPRPRPRPSKQPRP was run?
A: The value was 0.292.

Q: Which “shrunken log2 fold change” value does the source give for RRIRHRPPRLPRPRPRPKDRPRP here?
A: The value was 0.00902.

Q: How did the “shrunken log2 fold change” value turn out when RRIRNRPPRLPRPRPRPRKCPRP was run?
A: Its value is -0.0149.

Q: How did the “shrunken log2 fold change” value turn out when RRIRMRPPRLPRPRPRPQEDPRP was run?
A: The value was -0.0231.

Q: How did the “shrunken log2 fold change” value turn out when RRIRGRPPRLPRPRPRPQWDPRP was run?
A: Its value is 0.534.

Q: With RRIRKRPPRLPRPRPRPNGDPRP as the sequence, how does the “shrunken log2 fold change” value read?
A: Its value is -0.024.

Q: For RRIRDRPPRLPRPRPRPVCDPRP, which “shrunken log2 fold change” value is on record?
A: Its value is 0.696.

Q: RRIRKRPPRLPRPRPRPEILPRP was tested. Which “shrunken log2 fold change” value did it give?
A: The value was 0.728.

Q: With RRIRLRPPRLPRPRPRPCGFPRP as the sequence, how does the “shrunken log2 fold change” value read?
A: Its value is -0.0181.

Q: RRIRWRPPRLPRPRPRPNLWPRP was tested. Which “shrunken log2 fold change” value did it give?
A: The value was 0.587.

Q: How did the “shrunken log2 fold change” value turn out when RRIRFRPPRLPRPRPRPEQQPRP was run?
A: Its value is 0.171.

Q: How did the “shrunken log2 fold change” value turn out when RRIRNRPPRLPRPRPRPSWTPRP was run?
A: Its value is -0.211.

Q: For RRIRFRPPRLPRPRPRPFDWPRP, which “shrunken log2 fold change” value is on record?
A: Its value is 0.109.

Q: For RRIRDRPPRLPRPRPRPVQTPRP, which “shrunken log2 fold change” value is on record?
A: Its value is -0.0375.

Q: With RRIRRRPPRLPRPRPRPFETPRP as the sequence, how does the “shrunken log2 fold change” value read?
A: Its value is -0.207.

Q: RRIRIRPPRLPRPRPRPTQSPRP was tested. Which “shrunken log2 fold change” value did it give?
A: Its value is 0.575.

Q: Which “shrunken log2 fold change” value does the source give for RRIRCRPPRLPRPRPRPCNSPRP here?
A: Its value is -0.0476.

Q: RRIRVRPPRLPRPRPRPAGKPRP was tested. Which “shrunken log2 fold change” value did it give?
A: Its value is -0.308.

Q: Which “shrunken log2 fold change” value does the source give for RRIRSRPPRLPRPRPRPRRLPRP here?
A: Its value is 0.193.

Q: RRIRTRPPRLPRPRPRPHCKPRP was tested. Which “shrunken log2 fold change” value did it give?
A: Its value is -0.222.

Q: Which “shrunken log2 fold change” value does the source give for RRIRRRPPRLPRPRPRPMSYPRP here?
A: The value was -0.0379.

Q: For RRIRNRPPRLPRPRPRPGHDPRP, which “shrunken log2 fold change” value is on record?
A: Its value is 0.0277.

Q: RRIRFRPPRLPRPRPRPSLDPRP was tested. Which “shrunken log2 fold change” value did it give?
A: Its value is -0.296.

Q: How did the “shrunken log2 fold change” value turn out when RRIRDRPPRLPRPRPRPVCVPRP was run?
A: The value was 0.514.

Q: RRIRQRPPRLPRPRPRPKQKPRP was tested. Which “shrunken log2 fold change” value did it give?
A: The value was -0.0585.

Q: RRIRQRPPRLPRPRPRPVRKPRP was tested. Which “shrunken log2 fold change” value did it give?
A: The value was -0.0285.

Q: How did the “shrunken log2 fold change” value turn out when RRIRWRPPRLPRPRPRPMWIPRP was run?
A: The value was 0.135.

Q: Which “shrunken log2 fold change” value does the source give for RRIRLRPPRLPRPRPRPSNKPRP here?
A: Its value is -0.646.

Q: RRIRPRPPRLPRPRPRPLFGPRP was tested. Which “shrunken log2 fold change” value did it give?
A: Its value is 0.142.

Q: How did the “shrunken log2 fold change” value turn out when RRIRRRPPRLPRPRPRPFHCPRP was run?
A: The value was 0.089.

Q: How did the “shrunken log2 fold change” value turn out when RRIRERPPRLPRPRPRPYIDPRP was run?
A: Its value is -1.51.

Q: RRIRVRPPRLPRPRPRPGGFPRP was tested. Which “shrunken log2 fold change” value did it give?
A: The value was 0.211.

Q: How did the “shrunken log2 fold change” value turn out when RRIRDRPPRLPRPRPRPVGSPRP was run?
A: The value was 0.519.

Q: For RRIRCRPPRLPRPRPRPHGQPRP, which “shrunken log2 fold change” value is on record?
A: The value was 0.0389.

Q: RRIRGRPPRLPRPRPRPWLPPRP was tested. Which “shrunken log2 fold change” value did it give?
A: The value was -0.0942.

Q: How did the “shrunken log2 fold change” value turn out when RRIRTRPPRLPRPRPRPVHEPRP was run?
A: The value was 0.247.

Q: RRIRHRPPRLPRPRPRPEEAPRP was tested. Which “shrunken log2 fold change” value did it give?
A: The value was 0.015.
